4 molecules from patent US20160040196A1, “ENZYMATIC CONVERSION OF BOTH ENANTIOMERS OF 1,2-PROPANEDIOL TO PROPIONALDEHYDE” (University of Georgia Research Foundation, Inc., priority 2014, published 2016) can be followed below.

The test system of one data set is RiDD. Description: Hydrogen-driven conversion in a cell-free reactor (proof of concept, FIG. 2). The data set is classed as biochemical, Roseburia inulinivorans. Conditions: 10% (v/v) 1,2-propanediol, 1 atm hydrogen. The procedure:
In the simplest embodiment the “cell free reactor” would include only “catalytic” amounts of the enzymes described herein. Specifically, a catalytic amount is one molecule and anything greater than one enzyme molecule. In the data shown in FIG. 2 of this disclosure the cell free reactor includes the following; 10 μM of RiDD, 100 μM yeast alcohol dehydrogenase (YADH), and 200 μM of the soluble hydrogenase from Ralstonia metallidurans (formally Alcaligenes eutrophus). The reaction was carried out under strictly anaerobic conditions (oxygen-free argon gas) and initiated by the addition of the reduced RiDD-AE (50 μM final) and S-adenosylmethionine (1 μM). 100% hydrogen gas was maintained in the head space of the reactor at 1 atm and the reaction also included 1 mM NADH, 20 mM TRIS pH 7.9, and 1% glycerol.
This experiment was performed in a 50 mL reactor with 20 mL liquid volume and the remaining headspace under 1 atm of oxygen-free hydrogen gas. Experimental conditions were as follows 20 mM Tris pH 7.9, 10% (v/v) 1,2-propanediol, 1% (v/v) glycerol 50 μM purified RiDD, 100 μM purified DhaT, 100 μM NAD+, and 100 μM purified H2ase. After a brief pre-incubation (20 min) period to insure strictly anaerobic conditions were achieved (less than 1 ppm O2), purified RiDD-AE in the reduced (formally [4Fe-4S]′) form was added to a final concentration of 50 μM to initiate the reaction. […]

In a further data set the test system is C[C@H](O)CO. Description: purified protein, by the assay type.
For another data set, the system named is OCC(O)CO. Description: purified protein, by the assay type.
Substrate in data set [1]: C[C@H](O)CO
Put plainly: Coupled enzyme assay for the RiDD (NADH-dependent reduction of propionaldehyde by YADH). The data set is classed as biochemical, Roseburia inulinivorans. The conditions noted are these: other: substrate of RiDD; Michaelis-Menten fit, FIG. 7. The source says:
(§1) FIG. 5A depicts a chemical pathway describing how the conversion of glycerol, by an activated glycerol dehydratase can be easily monitored using purified DhaT and following the NADH-dependent reduction of 3-hydroxypropionaldehyde to 1,3-propanediol. Similarly, FIG. 5B depicts a chemical pathway for how the conversion of 1,2-propanediol, by an activated diol-dehydratase can be monitored by following the NADH-dependent reduction of propionaldehyde by YADH.
(§2) A coupled enzyme assay for the CbGD and the RiDD was performed as previously described^5 with minor modifications. Where indicated, varying amounts of the substrate (specifically, glycerol, R-1,2-propanediol, or S-1,2-propanediol) were added from pure stock solutions purchased through Sigma Chemical Company™ in some cases the stocks were diluted with ddH2O in order to allow for accurate measurement of the substrate at the lower concentrations. In addition, when glycerol was used as the substrate for the CbGD, the enzyme YqhD was included in the assay in place of yeast alcohol dehydrogenase (YADH) and […]. YqhD is an aldehyde reductase capable of the NADPH-dependent reduction of several aldehydes, including 3-hydroxypropionaldehyde and was overexpressed and purified from E. coli as previously described^9.

Substrate in data set [2]: C[C@@H](O)CO
Described as above. The data set is classed as biochemical, Roseburia inulinivorans. The conditions noted are these: other: substrate of RiDD; Michaelis-Menten fit, FIG. 7.
Text: as §1, §2

For `CC(O)CO` (racemic) [1,2-propanediol, propane-1,2-diol], in the data set on RiDD (after 6 hours, 1% glycerol), the “propanol titer from conversion of 1,2-propanediol” value is listed as about 14 g/L.
As to `OCC(O)CO` [glycerol, propane-1,2,3-triol], in the data set with RiDD (1% (v/v) glycerol, FIG. 2), the “concentration of glycerol over the reaction” value is “remained unchanged”.
For the molecule “C. butyricum glycerol dehydratase (CbGD) (Clostridium butyricum)”, the Km was 800 µM in the data set with C[C@H](O)CO and 200 µM in the data set on OCC(O)CO.

B1: B12-independent diol dehydratase from R. inulinivorans (RiDD) (Roseburia inulinivorans) (protein)
chain: MGNYDSTPIAKSDRIKRLVDHLYAKMPEIEAARAELITESFKATEGQPVVMRKARAFEHILKNLPIIIRPEELIVGSTTIAPRGCQTYPEFSYEWLEAEFETVETRSADPFYISEETKKRLLAADAYWKGKTTSELATSYMAPETLRAMKHNFFTPGNYFYNGVGHVTVQYETVLAIGLNGVKEKVRKEMENCHFGDADYSTKMCFLESILISCDAVITYANRYAKMAEEMAEKETDAARRQELLTIARVCKNVPEFPAESFQEACQSFWFIQQVLQIESSGHSISPGRFDQYMYPYYEKDLKEGSLTREYAQELIDCIWVKLNDLNKCRDAASAEGFAGYSLFQNLIVGGQTVQGRDATNDLSFMCITASEHVFLPMPSLSIRVWHGSSKALLMRAAELTRTGIGLPAYYNDEVIIPALVHRGATMDEARNYNIIGCVEPQVPGKTDGWHDAAFFNMCRPLEMVFSNGYDNGEIASIQTGNVESFQSFDEFMEAYRKQMLYNIELMVNADNAIDYAHAKLAPLPFESCLVDDCIKRGMSAQEGGAIYNFTGPQGFGIANVADSLYTIKKLVFEEKRITMGELKKALEMNYGKGLDATTAGDIAMQVAKGLKDAGQEVGPDVIANTIRQVLEMELPEDVRKRYEEIHEMILELPKYGNDIDEVDELAREAAYFYTRPLETFKNPRGGMYQAGLYPVSANVPLGAQTGATPDGRLAHTPVADGVGPTSGFDISGPTASCNSVAKLDHAIASNGTLFNMKMHPTAMAGEKGLESFISLIRGYFDQQGMHMQFNVVDRATLLDAQAHPEKYSGLIVRVAGYSALFTTLSKSLQDDIIKRTEQADNR
For B1, the Km is 500 µM in data set [1] and 800 µM in data set [2].
